# Target: AC domain (catalytic domain) of Bordetella pertussis adenylate cyclase toxin, recombinant (Bordetella pertussis) (UniProt J7QLC0)
# Test: SPR competition: AC domain (10 µM) pre-mixed with CaM and injected over an FHA-coated chip
substance,measurement,value
Calmodulin (from UniProt P0DP23 2-149),percent reduction of AC domain binding to FHA,75%
